Measurements taken from patent publication US20230029453A1 (Janssen / Centocor, published 2023).

Legend:
Assay in all cases: UV peptide exchange; HLA class I ELISA
HLA-B*08:01 [1] = molecular target: T1, HLA-B*08:01 (human, biotinylated heavy chain)
T1 construct: Conditional HLA class I complex as for m1
Method: (§1) The UV control represented UV-irradiation of conditional HLA class I complex in the absence of a rescue peptide.
(§2) The HLA class I ELISA is an enzyme immunoassay based on the detection of beta2-microglobulin (B2M) of (peptide-stabilized) HLA class I complexes. To this end streptavidin was bound onto polystyrene microtiter wells. […] Subsequently, horseradish peroxidase (HRP)-conjugated antibody to human B2M was added. […] In the latter case B2M was removed during the washing step. After removal of non-bound HRP conjugate by washing, a substrate solution was added to the wells. A coloured product formed in proportion to the amount of intact HLA complex present in the samples. After the reaction was terminated by the addition of a stop solution, absorbance was measured in a microtiter plate reader.

HLA-A*02:01 [2] = molecular target: T2, HLA-A*02:01 (human, biotinylated heavy chain)
T2 construct: Conditional HLA class I complex as for m1
Method: as §1, §2

HLA-B*27:05 = molecular target: T3, HLA-B*27:05 (human, biotinylated heavy chain)
T3 construct: Conditional HLA class I complex as for m1
Method: as §2

HLA-B*07:02 [3] = molecular target: T4, HLA-B*07:02 (human, biotinylated heavy chain)
T4 construct: Conditional HLA class I complex as for m1
Method: as §1, §2

HLA-A*24:02 [4] = molecular target: T5, HLA-A*24:02 (human, biotinylated heavy chain)
T5 construct: Conditional HLA class I complex as for m1
Method: as §1, §2

HLA-A*01:01 [5] = molecular target: T6, HLA-A*01:01 (human, biotinylated heavy chain)
T6 construct: Conditional HLA class I complex (heavy chain + B2M) first held by a UV-labile peptide; the tested peptide is exchanged in after UV cleavage
Method: as §1, §2

HLA-A*24:02 [6] = molecular target: T5, HLA-A*24:02; remark: listed apart in the source
Method: as §2
(§3) Higher percentages correspond to stronger binding to the HLA allele.
HLA-A*03:01 = molecular target: T7, HLA-A*03:01 (human, biotinylated heavy chain)
T7 construct: Conditional HLA class I complex as for m1
Method: as §2, §3

HLA-A*01:01 [7] = molecular target: T6, HLA-A*01:01; remark: listed apart in the source
Method: as §2, §3
HLA-B*08:01 [8] = molecular target: T1, HLA-B*08:01; remark: listed apart in the source
Method: as §2, §3
HLA-A*02:01 [9] = molecular target: T2, HLA-A*02:01; remark: listed apart in the source
Method: as §2, §3
HLA-B*07:02 [10] = molecular target: T4, HLA-B*07:02; remark: listed apart in the source
Method: as §2, §3

Binder | Average % (HLA-B*08:01 [1]) [%] | Exch I (%) (HLA-B*08:01 [1]) | Exch II (%) (HLA-B*08:01 [1]) | Average % (HLA-A*02:01 [2]) [%] | Exch I (%) (HLA-A*02:01 [2]) | Exch II (%) (HLA-A*02:01 [2]) | Average % (HLA-B*27:05) [%] | Exch I (%) (HLA-B*27:05) | Exch II (%) (HLA-B*27:05) | Average % (HLA-B*07:02 [3]) [%] | Exch I (%) (HLA-B*07:02 [3]) | Exch II (%) (HLA-B*07:02 [3]) | Average % (HLA-A*24:02 [4]) [%] | Exch I (%) (HLA-A*24:02 [4]) | Exch II (%) (HLA-A*24:02 [4]) | Average % (HLA-A*01:01 [5]) [%] | Exch I (%) (HLA-A*01:01 [5]) | Exch II (%) (HLA-A*01:01 [5]) | exchange rate with Pos (HLA-A*24:02 [6]) [%] | exchange rate with Pos (HLA-A*03:01) [%] | also measured
KQLIAMDSA [Peptide 9, 9-mer KQLIAMDSA derived from P22 (SEQ ID NO: 1003)] | 7.7 | 7.1 | 8.3 | 7.2 | 6.9 | 7.6 | 10.8 | 11.8 | 9.8 | 10.3 | 10.5 | 10.1 | 5 | 4.6 | 5.3 | 6.3 | 6.3 | 6.3 |  |  | 
GVLRRLLCR (Synthetic 9-mer) [P37 9-mer GVLRRLLCR (TSTD1-F11R fusion)] |  |  |  |  |  |  |  |  |  |  |  |  |  |  |  |  |  |  | -0.1 | 6.4 | exchange rate with Pos (HLA-A*01:01 [7]): 1.4%; exchange rate with Pos (HLA-B*08:01 [8]): 3.3%; exchange rate with Pos (HLA-A*02:01 [9]): 12.5%
FPVGAEGTF (Synthetic 9-mer) [P27 9-mer FPVGAEGTF (FAM126B-ORC2 fusion)] |  |  |  |  |  |  |  |  |  |  |  |  |  |  |  |  |  |  | 0.7 | 4.5 | exchange rate with Pos (HLA-A*01:01 [7]): 4.8%; exchange rate with Pos (HLA-B*07:02 [10]): 7.8%; exchange rate with Pos (HLA-B*08:01 [8]): 6.4%; exchange rate with Pos (HLA-A*02:01 [9]): 10%
SLYHREKQL [Peptide 4, 9-mer SLYHREKQL derived from P22 (SEQ ID NO: 1003)] | 20.7 | 20.3 | 21.1 | 87 | 82.8 | 91.2 | 16.5 | 19 | 14 | 10.8 | 10.9 | 10.8 | 6.6 | 6.5 | 6.6 | 6.6 | 6.7 | 6.4 |  |  | 
NSKMALNSL (Synthetic 9-mer) [P35 9-mer NSKMALNSL (TMPRSS2-ERG fusion)] |  |  |  |  |  |  |  |  |  |  |  |  |  |  |  |  |  |  | 0.2 | 4.2 | exchange rate with Pos (HLA-A*01:01 [7]): 2.5%; exchange rate with Pos (HLA-B*07:02 [10]): 12.1%; exchange rate with Pos (HLA-B*08:01 [8]): 13.7%; exchange rate with Pos (HLA-A*02:01 [9]): 12.5%
STRRAVRRM (Synthetic 9-mer) [P16 9-mer STRRAVRRM (MSMB-NCOA4 fusion)] |  |  |  |  |  |  |  |  |  |  |  |  |  |  |  |  |  |  | 0.8 | 6.1 | exchange rate with Pos (HLA-A*01:01 [7]): 5.5%; exchange rate with Pos (HLA-B*07:02 [10]): 13.7%; exchange rate with Pos (HLA-B*08:01 [8]): 6.2%; exchange rate with Pos (HLA-A*02:01 [9]): 10.4%
IAMDSAITL [Peptide 2, 9-mer IAMDSAITL derived from FUS1 (SEQ ID NO: 1001)] | 7.9 | 7.6 | 8.1 | 85.8 | 81.1 | 90.5 | 9.3 | 10.1 | 8.5 | 67.1 | 68.7 | 65.4 | 7 | 6.7 | 7.3 | 6.9 | 6.7 | 7 |  |  | 
HREKQLIAM [Peptide 7, 9-mer HREKQLIAM derived from P22 (SEQ ID NO: 1003)] | 9.5 | 9.5 | 9.5 | 8.2 | 7.9 | 8.6 | 30.9 | 32.3 | 29.5 | 12.6 | 12.6 | 12.6 | 5.5 | 5.4 | 5.6 | 5.4 | 5.5 | 5.2 |  |  | 
FFKRAAEGF (Synthetic 9-mer) [P77 9-mer FFKRAAEGF (AR-V3)] |  |  |  |  |  |  |  |  |  |  |  |  |  |  |  |  |  |  | 1.7 | 2.8 | exchange rate with Pos (HLA-A*01:01 [7]): 1.9%; exchange rate with Pos (HLA-B*07:02 [10]): 14.2%; exchange rate with Pos (HLA-B*08:01 [8]): 3.4%
NMVENGCYL (Synthetic 9-mer) [P59 9-mer NMVENGCYL (FOXA1 F254V)] |  |  |  |  |  |  |  |  |  |  |  |  |  |  |  |  |  |  | -0.5 | 4.5 | exchange rate with Pos (HLA-A*01:01 [7]): 2.2%; exchange rate with Pos (HLA-B*07:02 [10]): 7.5%; exchange rate with Pos (HLA-B*08:01 [8]): 5.5%; exchange rate with Pos (HLA-A*02:01 [9]): 11.9%
LIAMDSAIT [Peptide 10, 9-mer LIAMDSAIT derived from P22 (SEQ ID NO: 1003)] | 7.3 | 6.9 | 7.7 | 6.9 | 6.7 | 7.1 | 7.3 | 8.5 | 6.1 | 9.5 | 9.8 | 9.2 | 4.8 | 4.6 | 5.1 | 5.8 | 6.2 | 5.4 |  |  | 
IQYSCMGLM (Synthetic 9-mer) [P50 9-mer IQYSCMGLM (AR W742C)] |  |  |  |  |  |  |  |  |  |  |  |  |  |  |  |  |  |  | 0.1 | 5.5 | exchange rate with Pos (HLA-A*01:01 [7]): 2.3%; exchange rate with Pos (HLA-B*07:02 [10]): 10.4%; exchange rate with Pos (HLA-B*08:01 [8]): 4.7%; exchange rate with Pos (HLA-A*02:01 [9]): 8.8%
SLIAMDSAI [Peptide 3, 9-mer SLIAMDSAI derived from FUS1 (SEQ ID NO: 1001)] | 7.3 | 7.5 | 7.1 | 58.5 | 57.3 | 59.7 | 6.3 | 7.1 | 5.5 | 11.1 | 10.9 | 11.3 | 5.5 | 5.3 | 5.7 | 6.9 | 6.9 | 6.9 |  |  | 
YHREKQLIA [Peptide 6, 9-mer YHREKQLIA derived from P22 (SEQ ID NO: 1003)] | 8.3 | 8.3 | 8.4 | 17.2 | 16.3 | 18.1 | 13.1 | 14.4 | 11.7 | 10.8 | 11.1 | 10.5 | 6.5 | 6.6 | 6.3 | 5.8 | 6.2 | 5.5 |  |  | 
LYHREKQLI [Peptide 5, 9-mer LYHREKQLI derived from P22 (SEQ ID NO: 1003)] | 7.7 | 7.5 | 7.9 | 11.8 | 11.3 | 12.3 | 17.4 | 19.3 | 15.4 | 10.8 | 11.5 | 10 | 17.8 | 17.5 | 18.1 | 6 | 6.2 | 5.8 |  |  | 
AMDSAITLW [Peptide 1, 9-mer AMDSAITLW derived from FUS1 (SEQ ID NO: 1001)] | 7 | 6.6 | 7.3 | 8.6 | 8 | 9.2 | 9.8 | 10.3 | 9.3 | 9.7 | 10 | 9.4 | 5.5 | 5.1 | 6 | 4.6 | 4.7 | 4.6 |  |  | 
